The source of these data is patent US9933424 (SEOUL NATIONAL UNIVERSITY HOSPITAL, dated 2018).

For test [1], the target named is T1, adenylyl cyclase-associated protein 1 (CAP1), human, of THP-1 cells (human, UniProt Q01518 2-475).
T1 construct: Endogenous full-length protein in THP-1 lysates or on THP-1 cells; also called human resistin receptor; 55 kDa protein
Put plainly: western blot of cell lysates probed with mFc-human resistin as primary antibody, anti-mFc-HRP detection.

Test [2] has as its target T1, adenylyl cyclase-associated protein 1 …. Put plainly: conclusion of Example 4 (western blot, immunofluorescence, flow cytometry on THP-1 cells). (Immunoblotting shows a protein as a band on a membrane.)

T1 sequence (Q01518 2-475 limits assumed): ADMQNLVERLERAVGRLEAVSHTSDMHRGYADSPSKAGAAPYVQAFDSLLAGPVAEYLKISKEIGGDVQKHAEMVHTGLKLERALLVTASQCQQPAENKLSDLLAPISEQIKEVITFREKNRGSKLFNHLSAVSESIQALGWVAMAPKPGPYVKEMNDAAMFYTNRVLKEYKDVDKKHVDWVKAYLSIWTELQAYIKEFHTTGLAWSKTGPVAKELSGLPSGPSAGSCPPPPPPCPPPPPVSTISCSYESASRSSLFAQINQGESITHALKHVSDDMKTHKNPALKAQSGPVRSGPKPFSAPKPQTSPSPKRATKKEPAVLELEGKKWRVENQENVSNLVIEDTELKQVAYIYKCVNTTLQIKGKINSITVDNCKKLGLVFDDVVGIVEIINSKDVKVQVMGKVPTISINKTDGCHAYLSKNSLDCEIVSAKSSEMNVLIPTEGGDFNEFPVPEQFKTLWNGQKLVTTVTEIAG

B1: mFc-human resistin fusion protein (mouse Fc region of immunoglobulin fused to the N-terminus of human resistin) (Fc fusion, UniProt Q9HD89 19-108, looked up)
chain: KTLCSMEEAINERIQEVAGSLIFRAISSIGLECQSVTSRGDLATCPRGFAVTGCTCGSACGSWDVRAETTCHCQCAGMDWTGARCCRVQP
notes: Expressed in HEK293-F cells from pcDNA3.1 and purified on mFc-specific beads; also called mFc-human resistin protein; mFc human resistin recombinant protein; not shown: mouse immunoglobulin Fc region (mFc); prot
With B1, in test [1], the binding result was “binds”.

B2: recombinant human resistin protein (ligand, UniProt Q9HD89 19-108, looked up)
chain: B1 chain
notes: also called rhResistin; human recombinant resistin
Regarding B2, the binding result in test [2] was “binds”.
